US20250218531A1 (ABSCI, published 2025)
Read-outs that look alike come from different tables or passages of the source.

Legend:
[1] = biological target: human epidermal growth factor receptor 2 (HER2) extracellular domain (human, UniProt P04626 23-629); test: SPR, Fab format
[2] = biological target: T1, human epidermal growth factor receptor 2 (HER2) extracellular domain (human, UniProt P04626 23-629); test: SPR
[3] = biological target: T1, human epidermal growth factor receptor …; test: SPR, table row 9
[4] = biological target: T1, human epidermal growth factor receptor …; test: SPR (Carterra LSA), Fab captured, HER2 ECD as analyte
[5] = biological target: T1, human epidermal growth factor receptor …; test: SPR, table row 4
[6] = biological target: T1, human epidermal growth factor receptor …; test: SPR, table row 18
[7] = biological target: T1, human epidermal growth factor receptor …; test: SPR, table row 8
[8] = biological target: T1, human epidermal growth factor receptor …; test: SPR, table row 5
[9] = biological target: T1, human epidermal growth factor receptor …; test: SPR, table row 10
[10] = biological target: T1, human epidermal growth factor receptor …; test: SPR, table row 21
[11] = biological target: T1, human epidermal growth factor receptor …; test: SPR, table row 27
[12] = biological target: T1, human epidermal growth factor receptor …
[13] = biological target: T1, human epidermal growth factor receptor …; test: SPR, table row 3
[14] = biological target: T1, human epidermal growth factor receptor …; test: SPR, table row 1
[15] = biological target: T1, human epidermal growth factor receptor …; test: SPR, table row 26
[16] = biological target: T1, human epidermal growth factor receptor …; test: SPR, table row 2

B1: De novo trastuzumab HCDR3 variant ARTGWGYDNISGYEY (SEQ ID NO: 497) (Fab, V domains shown)
VH: EVQLVESGGGLVQPGGSLRLSCAASGFNIKDTYIHWVRQAPGKGLEWVARIYPTNGYTRYADSVKGRFTISADTSKNTAYLQMNSLRAEDTAVYYCARTGWGYDNISGYEYWGQGTLVTVSS
VL: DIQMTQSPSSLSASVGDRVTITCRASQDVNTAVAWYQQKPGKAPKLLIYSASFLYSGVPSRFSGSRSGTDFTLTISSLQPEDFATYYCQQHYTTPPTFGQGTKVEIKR
- Kd [1]: 1460 nM
- log(KD (M)) [1]: -5.84 log M

B2: AI Design 7 (multi-step AI designed trastuzumab variant, native HCDR1) (Fab, V domains shown)
VH: EVQLVESGGGLVQPGGSLRLSCAASGFNIKDTYIHWVRQAPGKGLEWVARIDPANGYTRYADSVKGRFTISADTSKNTAYLQMNSLRAEDTAVYYCARVGGRGYYYYDYWGQGTLVTVSS
VL: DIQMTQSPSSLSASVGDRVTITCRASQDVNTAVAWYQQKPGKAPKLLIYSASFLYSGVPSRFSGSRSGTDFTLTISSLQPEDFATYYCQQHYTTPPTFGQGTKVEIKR
notes: Fab format; also called GFNIKDTY / IDPANGYT / ARVGGRGYYYYDY
- Kd [2]: 134 nM

B3: AI Design 4 (multi-step AI designed trastuzumab HCDR1/2/3 variant) (Fab, V domains shown)
VH: EVQLVESGGGLVQPGGSLRLSCAASGFNIKDTWIHWVRQAPGKGLEWVARIDPANGYTRYADSVKGRFTISADTSKNTAYLQMNSLRAEDTAVYYCARVGGRGYYYYDYWGQGTLVTVSS
VL: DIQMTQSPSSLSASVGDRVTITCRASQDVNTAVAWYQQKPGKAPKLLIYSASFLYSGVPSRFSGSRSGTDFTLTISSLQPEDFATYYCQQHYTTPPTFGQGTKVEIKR
notes: Fab format; also called GFNIKDTW / IDPANGYT / ARVGGRGYYYYDY
- Kd [2]: 394 nM

B4: AI Design 6 (multi-step AI designed trastuzumab variant, native HCDR1) (Fab, V domains shown)
VH: EVQLVESGGGLVQPGGSLRLSCAASGFNIKDTYIHWVRQAPGKGLEWVARIDPADGYTRYADSVKGRFTISADTSKNTAYLQMNSLRAEDTAVYYCAREGGYGYYAMDYWGQGTLVTVSS
VL: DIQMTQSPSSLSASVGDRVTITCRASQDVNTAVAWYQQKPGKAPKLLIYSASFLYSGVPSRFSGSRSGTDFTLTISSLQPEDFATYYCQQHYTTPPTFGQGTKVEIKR
notes: Fab format; also called GFNIKDTY / IDPADGYT / AREGGYGYYAMDY
- Kd [2]: 160 nM

B5: AI Design 5 (multi-step AI designed trastuzumab HCDR1/2/3 variant) (Fab, V domains shown)
VH: EVQLVESGGGLVQPGGSLRLSCAASGFNFKDTYIHWVRQAPGKGLEWVARIYPANGYTRYADSVKGRFTISADTSKNTAYLQMNSLRAEDTAVYYCASDGGSYSYAFDYWGQGTLVTVSS
VL: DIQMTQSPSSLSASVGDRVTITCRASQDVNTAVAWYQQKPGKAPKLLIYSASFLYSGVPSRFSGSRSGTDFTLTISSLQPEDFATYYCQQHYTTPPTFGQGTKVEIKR
notes: Fab format; also called GFNFKDTY / IYPANGYT / ASDGGSYSYAFDY
- Kd [2]: 642 nM

B6: Trast_Her2_50 (Fab, V domains shown)
VH: EVQLVESGGGLVQPGGSLRLSCAASGFNIKDTYIHWVRQAPGKGLEWVARIYPTNGYTRYADSVKGRFTISADTSKNTAYLQMNSLRAEDTAVYYCAKGWGVEPREFAYWGQGTLVTVSS
VL: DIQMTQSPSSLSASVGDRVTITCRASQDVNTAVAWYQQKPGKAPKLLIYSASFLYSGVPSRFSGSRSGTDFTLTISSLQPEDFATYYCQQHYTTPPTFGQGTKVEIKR
notes: also called HCDR3 AKGWGVEPREFAY
- Kd [3]: 2.71 nM
- koff [3]: 4.19e-05 s⁻¹
- kon [3]: 15500 M⁻¹ s⁻¹

B7: AI Design 9 (multi-step AI designed trastuzumab variant, native HCDR1 and HCDR2) (Fab, V domains shown)
VH: EVQLVESGGGLVQPGGSLRLSCAASGFNIKDTYIHWVRQAPGKGLEWVARIYPTNGYTRYADSVKGRFTISADTSKNTAYLQMNSLRAEDTAVYYCARYYGSSSYYFAYWGQGTLVTVSS
VL: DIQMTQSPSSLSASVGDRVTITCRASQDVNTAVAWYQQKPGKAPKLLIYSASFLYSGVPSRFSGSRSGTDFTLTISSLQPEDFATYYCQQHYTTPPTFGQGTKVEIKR
notes: Fab format; also called GFNIKDTY / IYPTNGYT / ARYYGSSSYYFAY
- Kd [2]: 60.6 nM

B8: De novo trastuzumab HCDR3 variant TRYFFNGWYYFDV (Fab, V domains shown)
VH: EVQLVESGGGLVQPGGSLRLSCAASGFNIKDTYIHWVRQAPGKGLEWVARIYPTNGYTRYADSVKGRFTISADTSKNTAYLQMNSLRAEDTAVYYCTRYFFNGWYYFDVWGQGTLVTVSS
VL: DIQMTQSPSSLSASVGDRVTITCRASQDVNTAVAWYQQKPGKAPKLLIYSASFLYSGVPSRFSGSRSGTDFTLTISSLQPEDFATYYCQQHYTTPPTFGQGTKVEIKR
notes: Fab format
- log10(KD) [4]: -9.03 log10(M)

B9: AI Design 3 (multi-step AI designed trastuzumab HCDR1/2/3 variant) (Fab, V domains shown)
VH: EVQLVESGGGLVQPGGSLRLSCAASGFNIKDYYIHWVRQAPGKGLEWVARIYPSRGYTRYADSVKGRFTISADTSKNTAYLQMNSLRAEDTAVYYCARHGSEGRYTMDVWGQGTLVTVSS
VL: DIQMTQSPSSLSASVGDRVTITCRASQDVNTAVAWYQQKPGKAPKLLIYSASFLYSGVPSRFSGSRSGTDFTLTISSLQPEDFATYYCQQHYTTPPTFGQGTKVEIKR
notes: Fab format; also called GFNIKDYY / IYPSRGYT / ARHGSEGRYTMDV
- Kd [2]: 192 nM

B10: AI Design 8 (multi-step AI designed trastuzumab variant, native HCDR1) (Fab, V domains shown)
VH: EVQLVESGGGLVQPGGSLRLSCAASGFNIKDTYIHWVRQAPGKGLEWVARIYPSNGYTRYADSVKGRFTISADTSKNTAYLQMNSLRAEDTAVYYCARYGGSYAYYFYYWGQGTLVTVSS
VL: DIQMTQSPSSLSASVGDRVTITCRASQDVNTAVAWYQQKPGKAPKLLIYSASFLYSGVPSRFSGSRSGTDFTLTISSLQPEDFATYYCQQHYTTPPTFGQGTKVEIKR
notes: Fab format; also called GFNIKDTY / IYPSNGYT / ARYGGSYAYYFYY
- Kd [2]: 18.6 nM

B11: AI Design 2 (multi-step AI designed trastuzumab HCDR1/2/3 variant) (Fab, V domains shown)
VH: EVQLVESGGGLVQPGGSLRLSCAASGFNISDYYIHWVRQAPGKGLEWVARIYPSSGYTRYADSVKGRFTISADTSKNTAYLQMNSLRAEDTAVYYCARDGGVGSYSMDVWGQGTLVTVSS
VL: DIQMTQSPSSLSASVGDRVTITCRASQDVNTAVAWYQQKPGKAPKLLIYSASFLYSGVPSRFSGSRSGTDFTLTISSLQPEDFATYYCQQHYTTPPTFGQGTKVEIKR
notes: Fab format; also called GFNISDYY / IYPSSGYT / ARDGGVGSYSMDV
- Kd [2]: 1320 nM

B12: Trast_Her2_131 (Fab, V domains shown)
VH: EVQLVESGGGLVQPGGSLRLSCAASGFNIKDTYIHWVRQAPGKGLEWVARIYPTNGYTRYADSVKGRFTISADTSKNTAYLQMNSLRAEDTAVYYCARDGRYGYQDYWGQGTLVTVSS
VL: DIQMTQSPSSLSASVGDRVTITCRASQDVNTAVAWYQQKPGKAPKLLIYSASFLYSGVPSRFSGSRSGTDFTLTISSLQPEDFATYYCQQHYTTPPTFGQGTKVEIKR
notes: also called HCDR3 ARDGRYGYQDY
- Kd [5]: 1 nM
- koff [5]: 1e-05 s⁻¹
- kon [5]: 9990 M⁻¹ s⁻¹
- Kd [6]: 8.06 nM
- koff [6]: 0.000202 s⁻¹
- kon [6]: 25000 M⁻¹ s⁻¹

B13: Trast_Her2_54 (Fab, V domains shown)
VH: EVQLVESGGGLVQPGGSLRLSCAASGFNIKDTYIHWVRQAPGKGLEWVARIYPTNGYTRYADSVKGRFTISADTSKNTAYLQMNSLRAEDTAVYYCAKNFLIGTRYWWGQGTLVTVSS
VL: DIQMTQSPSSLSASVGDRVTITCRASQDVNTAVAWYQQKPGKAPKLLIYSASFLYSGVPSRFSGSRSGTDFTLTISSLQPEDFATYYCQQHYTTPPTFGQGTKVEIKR
notes: also called HCDR3 AKNFLIGTRYW
- Kd [7]: 2.68 nM
- koff [7]: 4.11e-05 s⁻¹
- kon [7]: 15400 M⁻¹ s⁻¹

B14: Trast_Her2_51 (Fab, V domains shown)
VH: EVQLVESGGGLVQPGGSLRLSCAASGFNIKDTYIHWVRQAPGKGLEWVARIYPTNGYTRYADSVKGRFTISADTSKNTAYLQMNSLRAEDTAVYYCAKHYDGWILAYWGQGTLVTVSS
VL: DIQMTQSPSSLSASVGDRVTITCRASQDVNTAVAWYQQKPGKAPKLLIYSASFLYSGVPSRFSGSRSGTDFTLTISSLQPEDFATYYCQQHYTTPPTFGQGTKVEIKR
notes: also called HCDR3 AKHYDGWILAY
- Kd [8]: 1.03 nM
- koff [8]: 1e-05 s⁻¹
- kon [8]: 9680 M⁻¹ s⁻¹
- Kd [9]: 2.89 nM
- koff [9]: 4.35e-05 s⁻¹
- kon [9]: 15100 M⁻¹ s⁻¹

B15: AI Design 1 (multi-step AI designed trastuzumab HCDR1/2/3 variant) (Fab, V domains shown)
VH: EVQLVESGGGLVQPGGSLRLSCAASGFNVSSSYIHWVRQAPGKGLEWVARIYPENGSTRYADSVKGRFTISADTSKNTAYLQMNSLRAEDTAVYYCSRYSYYGGYAFDYWGQGTLVTVSS
VL: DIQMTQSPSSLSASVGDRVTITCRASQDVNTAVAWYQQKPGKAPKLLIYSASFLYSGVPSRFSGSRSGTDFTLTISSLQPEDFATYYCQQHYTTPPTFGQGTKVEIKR
notes: Fab format; also called GFNVSSSY / IYPENGST / SRYSYYGGYAFDY
- Kd [2]: 225 nM

B16: Trast_Her2_57 (Fab, V domains shown)
VH: EVQLVESGGGLVQPGGSLRLSCAASGFNIKDTYIHWVRQAPGKGLEWVARIYPTNGYTRYADSVKGRFTISADTSKNTAYLQMNSLRAEDTAVYYCAKPYYYFSDGLEYWGQGTLVTVSS
VL: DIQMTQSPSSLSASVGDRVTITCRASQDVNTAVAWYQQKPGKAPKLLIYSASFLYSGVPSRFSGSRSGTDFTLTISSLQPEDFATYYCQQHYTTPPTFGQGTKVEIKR
notes: also called HCDR3 AKPYYYFSDGLEY
- Kd [10]: 15.6 nM
- koff [10]: 0.000321 s⁻¹
- kon [10]: 20600 M⁻¹ s⁻¹
- Kd [11]: 34.8 nM
- koff [11]: 0.000581 s⁻¹
- kon [11]: 16700 M⁻¹ s⁻¹

B17: De novo trastuzumab HCDR3 variant ANDIYIQGYDLNR (Fab, V domains shown)
VH: EVQLVESGGGLVQPGGSLRLSCAASGFNIKDTYIHWVRQAPGKGLEWVARIYPTNGYTRYADSVKGRFTISADTSKNTAYLQMNSLRAEDTAVYYCANDIYIQGYDLNRWGQGTLVTVSS
VL: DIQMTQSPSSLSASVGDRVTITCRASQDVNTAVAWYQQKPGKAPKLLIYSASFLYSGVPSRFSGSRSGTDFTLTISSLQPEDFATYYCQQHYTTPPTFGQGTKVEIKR
notes: Fab format
- log10(KD) [4]: -8.4 log10(M)

B18: De novo trastuzumab HCDR3 variant ARYAGVERPGSFAY (SEQ ID NO: 43) (Fab, V domains shown)
VH: EVQLVESGGGLVQPGGSLRLSCAASGFNIKDTYIHWVRQAPGKGLEWVARIYPTNGYTRYADSVKGRFTISADTSKNTAYLQMNSLRAEDTAVYYCARYAGVERPGSFAYWGQGTLVTVSS
VL: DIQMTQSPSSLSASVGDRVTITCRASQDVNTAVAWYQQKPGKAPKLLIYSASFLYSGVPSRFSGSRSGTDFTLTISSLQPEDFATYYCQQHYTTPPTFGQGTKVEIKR
- Kd [1]: 574 nM
- log(KD (M)) [1]: -6.24 log M

B19: De novo trastuzumab HCDR3 variant ARYAGVERPGSFAY (Fab, V domains shown)
VH: EVQLVESGGGLVQPGGSLRLSCAASGFNIKDTYIHWVRQAPGKGLEWVARIYPTNGYTRYADSVKGRFTISADTSKNTAYLQMNSLRAEDTAVYYCARYAGVERPGSFAYWGQGTLVTVSS
VL: not shown
notes: Fab format
- log10(KD) [4]: -6.24 log10(M)

B20: De novo trastuzumab HCDR3 variant ARYDYGYYIYVS (Fab, V domains shown)
VH: EVQLVESGGGLVQPGGSLRLSCAASGFNIKDTYIHWVRQAPGKGLEWVARIYPTNGYTRYADSVKGRFTISADTSKNTAYLQMNSLRAEDTAVYYCARYDYGYYIYVSWGQGTLVTVSS
VL: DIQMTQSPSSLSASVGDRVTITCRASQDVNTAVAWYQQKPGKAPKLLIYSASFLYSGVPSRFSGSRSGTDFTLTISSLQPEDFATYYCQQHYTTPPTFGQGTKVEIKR
notes: Fab format
- log10(KD) [4]: -8.02 log10(M)

B21: Trast_Her2_52 (Fab, V domains shown)
VH: EVQLVESGGGLVQPGGSLRLSCAASGFNIKDTYIHWVRQAPGKGLEWVARIYPTNGYTRYADSVKGRFTISADTSKNTAYLQMNSLRAEDTAVYYCAKISRYYYGMDYWGQGTLVTVSS
VL: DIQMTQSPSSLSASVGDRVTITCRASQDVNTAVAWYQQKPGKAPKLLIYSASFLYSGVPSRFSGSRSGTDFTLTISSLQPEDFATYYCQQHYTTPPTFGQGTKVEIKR
notes: also called HCDR3 AKISRYYYGMDY
- Kd [12]: 9.01 nM
- koff [12]: 0.000127 s⁻¹
- kon [12]: 14100 M⁻¹ s⁻¹
- Kd [13]: 0.929 nM
- koff [13]: 1e-05 s⁻¹
- kon [13]: 10800 M⁻¹ s⁻¹

B22: De novo trastuzumab HCDR3 variant ARYYYGFYYFDY (Fab, V domains shown)
VH: EVQLVESGGGLVQPGGSLRLSCAASGFNIKDTYIHWVRQAPGKGLEWVARIYPTNGYTRYADSVKGRFTISADTSKNTAYLQMNSLRAEDTAVYYCARYYYGFYYFDYWGQGTLVTVSS
VL: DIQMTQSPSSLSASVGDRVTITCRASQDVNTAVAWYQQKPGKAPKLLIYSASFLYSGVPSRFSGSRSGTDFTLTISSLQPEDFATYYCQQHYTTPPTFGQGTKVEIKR
notes: Fab format
- log10(KD) [4]: -8.92 log10(M)

B23: Trast_Her2_49 (Fab, V domains shown)
VH: EVQLVESGGGLVQPGGSLRLSCAASGFNIKDTYIHWVRQAPGKGLEWVARIYPTNGYTRYADSVKGRFTISADTSKNTAYLQMNSLRAEDTAVYYCAKGTSSWYNFGVWGQGTLVTVSS
VL: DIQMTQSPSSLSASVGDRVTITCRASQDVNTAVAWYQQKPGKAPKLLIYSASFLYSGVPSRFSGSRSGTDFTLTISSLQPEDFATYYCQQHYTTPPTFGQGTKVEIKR
notes: also called HCDR3 AKGTSSWYNFGV
- Kd [14]: ≤ 0.517 nM
- koff [14]: ≤ 1e-05 s⁻¹
- kon [14]: 19300 M⁻¹ s⁻¹

B24: Trast_Her2_70 (Fab, V domains shown)
VH: EVQLVESGGGLVQPGGSLRLSCAASGFNIKDTYIHWVRQAPGKGLEWVARIYPTNGYTRYADSVKGRFTISADTSKNTAYLQMNSLRAEDTAVYYCAKYDYYIYDFDIWGQGTLVTVSS
VL: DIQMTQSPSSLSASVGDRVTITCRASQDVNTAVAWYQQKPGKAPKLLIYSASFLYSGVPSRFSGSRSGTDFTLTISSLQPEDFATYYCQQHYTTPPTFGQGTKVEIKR
notes: also called HCDR3 AKYDYYIYDFDI
- Kd [12]: 19.4 nM
- koff [12]: 0.000369 s⁻¹
- kon [12]: 19000 M⁻¹ s⁻¹
- Kd [15]: 30.5 nM
- koff [15]: 0.000284 s⁻¹
- kon [15]: 9320 M⁻¹ s⁻¹

B25: Trast_Her2_12 (Fab, V domains shown)
VH: EVQLVESGGGLVQPGGSLRLSCAASGFNIKDTYIHWVRQAPGKGLEWVARIYPTNGYTRYADSVKGRFTISADTSKNTAYLQMNSLRAEDTAVYYCAGHWTYRFADTLWGQGTLVTVSS
VL: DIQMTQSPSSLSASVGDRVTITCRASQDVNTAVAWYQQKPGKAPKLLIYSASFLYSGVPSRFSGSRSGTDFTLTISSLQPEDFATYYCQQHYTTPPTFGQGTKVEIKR
notes: also called HCDR3 AGHWTYRFADTL
- Kd [16]: ≤ 0.792 nM
- koff [16]: ≤ 1e-05 s⁻¹
- kon [16]: 12600 M⁻¹ s⁻¹
